According to paper PMC9175492:

Assays:
[1] = biological target: LgBit, an 18-kDa subunit of NanoLuc; assay: split reporter
[2] = biological target: proteins in FBS (bovine (fetal bovine serum)); assay: fluorescence polarisation

| fold induction of luminescence at 10 μM [1] [fold] | Kd [2] [µM] | Substance |
| --- | --- | --- |
| 200 | – | CPP12-HiBit conjugate (peptide) |
| – | 29 | FITC-labeled CPP12 (peptide) |
| – | 1.3 | NF-labeled CPP12 (peptide) |
| – | 27 | TMR-labeled CPP12 (peptide) |
